Results published in patent publication US20230329245A1, “COMPOSITIONS AND METHODS OF USE THEREOF” (Curie Co. Inc., priority 2020, published 2023).
Several values for one entry are separate records, joined by “and”; a condition that tells them apart may be missing. Identical values can stand only once.

Columns and labels:
Type in all cases: cell-based
[1] = system: C. parapsilosis ATCC 22019; assay: MIC determination, C. parapsilosis; conditions: duplicate, listed as Tgase variant (SEQ ID NO: 6)
C. albicans ATCC 10231 [2] = assay: Minimum fungicidal concentration (MFC), C. albicans; conditions: no colonies recovered on SDA, duplicate, listed as Tgase variant (SEQ ID NO: 6)
Procedure: Minimum fungicidal concentration (MFC) was determined by plating 10 microliters of liquid from each MFC test solution on the appropriate agar media for each test strain. The liquid was allowed to air dry in a biosafety cabinet, then the agar plates were incubated under the appropriate conditions: A. brasiliensis and C. albicans were grown on Sabouraud Dextrose Agar (SDA) plates. A. brasiliensis was grown at 25° C. for 5 to 7 days, while C. albicans was grown at 37° C. for 24 to 48 hours. Colony formation was then assessed. MFC is defined as the lowest concentration of the Tgase (SEQ ID NO:6) in which no colonies were recovered.

C. albicans ATCC 10231 [3] = assay: Growth reduction of C. albicans culture (OD600 / BacTiter-Glo); conditions: C. albicans ATCC 10231
Procedure: For MIC determination of yeast cultures, C. albicans ATCC 10231 was grown overnight (24 hours) in YPD media at 30° C. The following day, the cell density of the saturated cultures was calculated using OD600 and cultures were diluted to 10^4 to 10^6 CFU/mL in sterile YPD media to generate the inoculum, and 90 μL of the inoculum was combined with 10 μL of serially diluted Tgase SEQ ID NO:1 at a range of 0.0001-0.01 weight percent. The cultures were grown overnight at 30° C. and growth curves were measured by OD600 on a BioTek® Synergy Plate Reader. Optionally, the following day, a cell viability assay such as BacTiter-Glo™ (Promega®) following manufacturer's protocols) could be used to assess cell viability. A decrease in OD600 or luminescence indicated a decrease in cell viability. Results are presented as a percent reduction in cell count relative to an untreated culture. All test conditions were performed in triplicate.
(§1) Yeast or bacterial starter cultures were grown as described previously. Tgase (SEQ ID NO:6) was added to each culture at 0.001-1 weight percent. The cultures were grown overnight at 30° C.-37° C. and growth curves were measured by a BioTek® Synergy Plate Reader.

P. aeruginosa ATCC 9027 = assay: MIC determination, P. aeruginosa; conditions: CAMHB pH 7.3, 37° C., 18 to 20 hours, duplicate
Procedure: (§2) A variant form of Streptomyces mobaraensis transglutaminase having the amino acid sequence depicted in SEQ ID NO:6 was prepared by literature methods with a hexa-his-tag to aid in purification (Javitt, et al. (2017) BMC Biotechnol. 17:23). The cells were grown in shake flasks, lysed by homogenization, and the Tgase variant (SEQ ID NO:6) was isolated from the cell debris by centrifugation. The resulting semi-purified enzyme (clarified lysate) were compared on an SDS-PAGE gel, by spectroscopy, and activity for concentration of active enzyme. The Tgase variant (SEQ ID NO:6) was further purified by affinity column on a Ni-IMAC resin prior to MIC assay. Tgase activity was measured in the examples herein using a colorimetric hydroxamate activity assay (Folk and Cole (1965) J Biol Chemistry 240(7):2951-2960). The enzyme was diluted to a working stock concentration of 2 mg/mL in CAMHB or RPMI media (bacterial or fungal media). This was then 2-fold serial diluted ten times in the appropriate media in a 96-well master plate to generate 2× starting concentrations for MIC testing.
(§3) Strains were acquired from the American Type Culture Collection (ATCC) (Manassas, VA) and maintained as −80° C. frozen glycerol stocks: S. aureus ATCC 6538, E. coli ATCC 8739, P. aeruginosa ATCC 9027, C. albicans ATCC 10231, and A. brasiliensis ATCC 16404. B. subtilis BGSC 1A1276 was purchased from the Bacillus Genetic Stock Center (BGSC) (Columbus, OH) and maintained as −80° C. frozen glycerol stock. Cation-adjusted Mueller-Hinton broth (CAMHB) at pH 7.3 was used for testing with bacterial species (unless otherwise noted), while RPMI 1640 media buffered with 0.165 M MOPS at pH 7.0 was used for testing with all fungal species.
For MIC determination, bacterial strains (S. aureus ATCC 6538, E. coli ATCC 8739, P. aeruginosa ATCC 9027) were grown overnight on Tryptic Soy Agar (TSA) plates at 37° C. A few colonies of each strain were collected with a sterile swab and used to make a McFarland 0.5 standard solution (approximately 1×10^8 CFU/mL) in sterile PBS. […]

E. coli ATCC 8739 = assay: MIC determination, E. coli; conditions: CAMHB pH 7.3, 37° C., 18 to 20 hours, duplicate
Procedure: as §2, §3
For MIC determination, bacterial strains (S. aureus ATCC 6538, E. coli ATCC 8739, P. aeruginosa ATCC 9027) were grown overnight on Tryptic Soy Agar (TSA) plates at 37° C. A few colonies of each strain were collected with a sterile swab and used to make a McFarland 0.5 standard solution (approximately 1×10^8 CFU/mL) in sterile PBS. The McFarland solution was then diluted 1:100 in CAMHB to generate the inoculum, and 50 μL of this inoculum was combined with 50 μL of the 2× test article in a 96-well plate for a final concentration of 1×. All test conditions were performed in duplicate. The bacterial-strain MIC 96-well plates were incubated at 37° C. for 18 to 20 hours. MIC is defined as the lowest concentration of a compound in which no visible growth is observed.

B. subtilis BGSC 1A1276 = assay: Growth reduction of B. subtilis culture (OD600 / BacTiter-Glo)
Procedure: For MIC determination of bacterial cultures, E. coli ATCC 8739, DH5-alpha, DH10-beta, and B. subtilis BGSC 1A1276 was grown overnight (16-18 hours) in LB broth at 37° C. The following day, the cell density of the saturated cultures was calculated using OD600 and cultures were diluted to 10^4 to 10^6 CFU/mL in sterile LB media to generate the inoculum, and 90 μL of the inoculum was combined with 10 μL of serially diluted Tgase SEQ ID NO:1 at a range of 0.0001-0.01 weight percent in the presence or absence of 0.003% lysozyme (100-fold lower than the effective concentration). Growth curves were measured by OD600 on a BioTek® Synergy Plate Reader. Optionally, the following day, a cell viability assay such as BacTiter-Glo™ (Promega®) following manufacturer's protocols) could be used to assess cell viability. A decrease in OD600 or luminescence indicated a decrease in cell viability. Results are presented as a percent reduction in cell count relative to an untreated culture. All test conditions were performed in triplicate.
as §1

B1: Tgase (SEQ ID NO: 6): variant Streptomyces mobaraensis transglutaminase (SEQ ID NO:2) with N-terminal Methionine, C-terminal peptide linker and hexa-His-Tag (protein)
chain: MDPDDRVTPPAEPLDRMPDPYRPSYGRAETVVNNYIRKWQQVYSHRDGRKQQMTEEQREWLSYGCVGVTWVNSGQYPTNRLAFASFDEDRFKNELKNGRPRSGETRAEFEGRVAKESFDEEKGFQRAREVASVMNRALENAHDESAYLDNLKKELANGNDALRNEDARSPFYSALRNTPSFKERNGGNHDPSRMKAVIYSKHFWSGQDRSSSADKRKYGDPDAFRPAPGTGLVDMSRDRNIPRSPTSPGEGFVNFDYGWFGAQTEADADKTVWTHGNHYHAPNGSLGAMHVYESKFRNWSEGYSDFDRGAYVITFIPKSWNTAPDKVKQGWPLEHHHHHH
**Q.** Which MIC [1] does the source give for B1 here?
**A.** Its MIC is 250 µg/mL and 125 µg/mL.

**Q.** And the MFC (C. albicans ATCC 10231 [2])?
**A.** Its MFC is 31.25 µg/mL and 62.5 µg/mL.

**Q.** And the “Fold improvement in enzyme efficacy” value (C. albicans ATCC 10231 [3]; Tgase (SEQ ID NO: 1) = 1)?
**A.** Its value is 10.

**Q.** What about the “Percent Growth Reduction” value (C. albicans ATCC 10231 [3]; enzyme concentration 80 ug/mL) of the same molecule?
**A.** Its value is 99.95%.

**Q.** What about the MIC (P. aeruginosa ATCC 9027) of the same molecule?
**A.** The MIC was >1,000 μg/mL.

**Q.** What about the MIC (E. coli ATCC 8739) of the same molecule?
**A.** The MIC was >1,000 μg/mL.

**Q.** What about the “Fold improvement in enzyme efficacy” value (B. subtilis BGSC 1A1276; Tgase (SEQ ID NO: 1) alone = 1) of the same molecule?
**A.** Its value is 12.

**Q.** And the “Percent Growth Reduction” value (B. subtilis BGSC 1A1276; enzyme concentration 80 ug/mL)?
**A.** Its value is 99.77%.
